Reference: the supplement of paper PMC10567573
± gives the standard deviation.

Experiment: protein stability index of a GFP-peptide fusion (GPS, HEK-293T) (PSI 1-6); higher = more stable
[1] = treatment: DMSO, c terminus: a fixed tail appended
[2] = treatment: MLN4924 1 uM, 8 h, c terminus: a fixed tail appended
[3] = treatment: DMSO, c terminus: native
[4] = treatment: MLN4924 1 uM, 8 h, c terminus: native
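Also: 24-mer peptide tiles fused after GFP, lentivirally expressed, FACS-sorted into six equal bins by GFP/DsRed ratio, decoded by Illumina sequencing, PSI is the read-weighted mean bin number.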

Sequence	protein stability index [1]	protein stability index [2]	protein stability index [3]	protein stability index [4]
LSEPDPSHTLEERVVHWYFKLLDK [SMOC2]	2.61 ± 0.46	2.84 ± 0.29	–	–
LNMAKKSVDIVSSHWDLNHTHPSA [PLD5]	3.1 ± 0.3	3.2 ± 0.28	–	–
EKLLERQGQAKTPDSMFLAMLAVV [CDK11A]	1.95 ± 0.21	2.2 ± 0.55	–	–
FKLLAGRWPFDHNDFGVFLCKLFP [EDNRA]	2.34 ± 0.37	2.5 ± 0.38	–	–
AEGDSWEEEGFGSSSPVKSPAAPY [WEE1]	5.28 ± 0.13	5.19 ± 0.22	–	–
RRVWSPPRVHKVEMGFGGGGGAN [ZBTB22]	–	–	4.13 ± 0.3	3.92 ± 0.14
IRIKLDPCHPTVKNWRNFASKWGM [EDARADD]	3.28 ± 0.61	2.58 ± 0.76	–	–
VENRVVEEAKGLLDKVKDGGYRPA [ZBED1]	4.82 ± 0.13	4.94 ± 0.094	–	–
VTEDLRLKDWEHSIALRNISLAKG [SCARA5]	3.5 ± 0.26	3.59 ± 0.39	–	–
THACREYLKNLPLLSKYCGYREDN [TPH1]	2.22 ± 0.26	2.18 ± 0.41	–	–
ARGSIVATYIFIFIGETLLSMNWA [SPNS1]	3.4 ± 0.55	2.88 ± 0.55	–	–
RPEELLQMELLLVNKLKWNLAAMT [CCND1]	2.68 ± 0.71	2.52 ± 0.66	–	–
TAVHGRFTRSQTLIQNGGEIDCVD [ANKRD44]	4.34 ± 0.14	4.48 ± 0.19	–	–
QRYEHGRTLKSYLGLTNQSRRYNR [ZNF649]	3.39 ± 0.21	3.59 ± 0.29	–	–
SMEVFTHYDLLNLNGTKVAEGHKA [LOXL2]	4.39 ± 0.16	3.85 ± 0.42	–	–
TADEIPMEPGDIIGVAGNHWDGYS [FUT8]	4.21 ± 0.32	4.16 ± 0.23	–	–
DDGKLGATGPMGMRGFKGDRGPKG [SCARA5]	5.02 ± 0.36	5.07 ± 0.13	–	–
FFIGFTALVIMWQKHYVYGPLPQS [COX4I1]	3.22 ± 0.34	3.36 ± 0.57	–	–
VQSEIFLHESYCMDTSHQPLLPAP [LYSMD4]	2.93 ± 0.23	2.76 ± 0.28	–	–
KGLLKKGACYGDDACFVARHRSAD [PPTC7]	4.16 ± 0.56	4.05 ± 0.25	–	–
LTGLNYEAPKYHIPYWVAYYLALL [NSDHL]	2.71 ± 0.59	2.87 ± 0.48	–	–
PTTEPETEPEDDRGPVVPKHSTFG [GNAS]	5.4 ± 0.18	5.27 ± 0.42	–	–
CPKYKFISCPTCRRETVLFTDYGL [RNF208]	2.28 ± 0.25	2.25 ± 0.21	–	–

Sequence	protein stability index [1]	protein stability index [2]	protein stability index [3]	protein stability index [4]
GSSNVGINRWRFLLQCLEDLDANL [CRY1]	2.48 ± 0.52	2.4 ± 0.13	–	–
PLTSHILRAFVNSQIQGHKEMSKV [SNX8]	2.3 ± 0.36	2.21 ± 0.3	–	–
SLRKSNTLCDVTLRVEQKDFPAHR [KLHL12]	3.58 ± 0.3	3.91 ± 0.38	–	–
SYTTTTTITAPPSRVLQNGGDKLE [SCD]	4.85 ± 0.23	4.81 ± 0.29	–	–
CPLLLGSVMAIERCIGVTKPIFHS [PTGFR]	2.78 ± 0.87	2.77 ± 0.68	–	–
IEDFQQKILLTKSENARLVLQIDN [KRT36]	2.79 ± 0.25	2.8 ± 0.23	–	–
DLFEKKGYTFDYAYDWVGRPIPTP [CSNK1G1]	2.26 ± 0.58	2.37 ± 0.29	–	–
LLDCFGIPVLMALSWFILHARYRV [SLC35F2]	3.07 ± 0.33	3.64 ± 0.27	–	–
KNGLSFIETSALDSTNVEAAFQTI [RAB11A]	3.31 ± 0.27	3.56 ± 0.43	–	–
ICFCCEEFQPAKCTDKENALKLFP [FAM189A2]	2.37 ± 0.036	2.58 ± 0.25	–	–
FSEQVFKVASSDLVNMGISVVSYT [FLOT1]	2.66 ± 0.72	2.39 ± 0.44	–	–
SVKIPVRNHGILMETHKELKPLLS [LYSMD4]	2.86 ± 0.13	3.17 ± 0.36	–	–
EELAPVGTAHIPPTMHLESPALQV [ZNF449]	4.18 ± 0.27	4.33 ± 0.091	–	–
LDNLLAFVCDIRPEIHENYRING [ATP6V1G1]	–	–	2.27 ± 0.49	2.47 ± 0.21
ALAIKVNLCGHWYYSKACCRSCRP [ADAMTSL2]	2.43 ± 0.38	2.77 ± 0.62	–	–
HAAASNGQINVVKHLLNLGVEIDE [ANKRD44]	4.06 ± 0.35	4.16 ± 0.25	–	–
TDNGTFNLSRGQTPLTEGSEDLDG [RETREG3]	5.25 ± 0.26	5.45 ± 0.25	–	–
AESHASKDVAIDMMDSRTSQQLQL [STX5]	4.98 ± 0.11	4.89 ± 0.18	–	–
EVFEGREDSIFGDPKKLLTQYFVQ [MAGEA6]	2.34 ± 0.18	2.46 ± 0.18	–	–
FDQTVFQEVFEPPHYELCTLRGTG [NETO1]	2.96 ± 0.12	2.97 ± 0.3	–	–
QAHELAYDPNYMSPFAQFACDNGL [PPTC7]	3.32 ± 0.12	3.13 ± 0.41	–	–
DPVLAKVAGDCLDEKQCKQCANKV [LRRC59]	4.99 ± 0.42	5.07 ± 0.09	–	–
NQLTHTDLKPENILFVNSEFETLY [CLK3]	3.29 ± 0.35	3.27 ± 0.18	–	–

Sequence	protein stability index [1]	protein stability index [2]	protein stability index [3]	protein stability index [4]
VIDRKVYNISEFTRRHPGGSRVIS [FADS1]	2.66 ± 0.26	3.07 ± 0.062	–	–
DSVSVNDIDLSLYIPRDVDETGIT [ZC3H15]	3.76 ± 0.15	4.36 ± 0.11	–	–
AIYFTAYDQLKAFLCGRALTSDLY [SLC25A39]	3.35 ± 0.83	3.37 ± 0.57	–	–
DQSDEGSSSQKEESPSTLQVLPDS [MAGEA10]	5.66 ± 0.21	5.56 ± 0.16	–	–
VPMILVGNKCDLEDERVVGKEQGQ [RAP1B]	4.56 ± 0.35	4.72 ± 0.39	–	–
ETQEQDVDLVQKYLEKYYNLKNDG [MMP1]	3.99 ± 0.38	3.92 ± 0.3	–	–
GGGGTQRLPRAIGMSLAKELIFSA [AUH]	2.54 ± 0.21	2.69 ± 0.58	–	–
VDVQTELYLEEIADRIIEVDMECQ [RSPH3]	2.75 ± 0.32	3.12 ± 0.69	–	–
GTLNREDLSRLVNCLTGEGEDTRL [CIB1]	4.25 ± 0.32	4.48 ± 0.31	–	–
IDKKPVSEKTDESDTIPYLKKFLY [MIA2]	2.83 ± 0.57	2.95 ± 0.4	–	–
ALKDNKSPLHLVQMPPVIVETARS [PI4K2A]	3.8 ± 0.29	3.82 ± 0.29	–	–
EVQKLVESGVDVNSQNEVNGWTCL [ANKRD40]	3.43 ± 0.53	3.33 ± 0.16	–	–
RSAMSGASQPRGPALLFPATRGVP [TRIB1]	3.554 ± 0.019	4.14 ± 0.29	–	–
SSGHQNRRFSSEDLEDPLGGLLSY [FBF1]	3.6 ± 0.48	3.89 ± 0.36	–	–
KKQTKVEFPEARIFEETLNILIYE [KCTD13]	2.16 ± 0.2	2.44 ± 0.5	–	–
NKCSGMRFPLQEENSVTHHEVKCQ [KMT5A]	4.79 ± 0.42	4.61 ± 0.37	–	–
RPMSEPGAGAGSSLLDVAEPGGPG [SMAD6]	5.11 ± 0.3	5.39 ± 0.16	–	–
EQLMYIKEDLIIPHHHSFYDFIVT [FAM50A]	2.42 ± 0.21	2.27 ± 0.21	–	–
DSGASAITRESHTHRDRPSQQQPL [CSNK1G1]	5.09 ± 0.15	5.15 ± 0.17	–	–
RGLIPVKRGPSSRSGGPPPKKSAP [RBMY1A1]	4.3 ± 0.58	4.73 ± 0.28	–	–
APFPPPPAADGARAPRSPGQVTPR [C6orf223]	5.14 ± 0.54	5.25 ± 0.11	–	–
GVGKAIEEELQEIASEPTNKHLFY [MATN2]	4.75 ± 0.37	4.46 ± 0.11	–	–
TPSQEHLKHQTVYRLLKCAPRGKN [FEM1A]	3.61 ± 0.15	3.62 ± 0.12	–	–

Sequence	protein stability index [1]	protein stability index [2]	protein stability index [3]	protein stability index [4]
EPEMAVFLQNAKTLLKKISEASKA [TRIM55]	2.46 ± 0.3	2.25 ± 0.22	–	–
FGSGSNGCLGHGSLTDISQPTIVE [NEK8]	3.5 ± 0.34	3.91 ± 0.2	–	–
DYLDLDKMSLYSEADSGYGSYGGF [TRIM9]	2.46 ± 0.51	2.77 ± 0.24	–	–
IESKIPLNMEEPPVEEPEPKPDRL [SLC19A2]	5.36 ± 0.24	5.57 ± 0.12	–	–
QAVVLCSKKTFQITKQGDGVDFLS [USP39]	2.57 ± 0.18	2.77 ± 0.38	–	–
MLCAASGNPDPEITWFKDFLPVDT [PTPRD]	2.95 ± 0.66	3.23 ± 0.42	–	–
VLSRLQDAAVVRPGFLSTAEEETL [ALKBH7]	4.21 ± 0.17	4.12 ± 0.55	–	–
DNPSVLSGPMQAALQAAAHASVDI [SMG5]	4.05 ± 0.14	4.29 ± 0.26	–	–
GYVANSSNCISGVCSVRGGEGRSR [KRT71]	3.47 ± 0.2	3.73 ± 0.43	–	–
RANPCLSSSNEHAAPAAKTRKQAA [ELOA2]	5.08 ± 0.16	5.18 ± 0.26	–	–
YIPSSYVDSHHEYPAMTFYSPAVM [ESR2]	2.73 ± 0.93	2.6 ± 0.45	–	–
GETGSGDQAGGEGKHITVFKTYIS [MYOZ1]	3.97 ± 0.14	4.06 ± 0.15	–	–
RTFGPPPSLSPGAFSYSSSSRFSS [PRPH]	3.42 ± 0.21	3.8 ± 0.3	–	–
DVAGNLDYKALSYVITHGEEKEE [MYL5]	–	–	2.62 ± 0.7	3.56 ± 1.1
QELQIDDNEYAYLKAIIFFDPDAK [HNF4A]	2.53 ± 0.22	2.72 ± 0.21	–	–
ILVYDIANRWSFEGMDRWIKKIEE [RAB40A]	2.43 ± 0.38	2.34 ± 0.16	–	–
CIVSPDRPGVQDAALIEAIQDRLS [VDR]	3.55 ± 0.14	3.65 ± 0.25	–	–
MAMQMQLEANADTSVEEESFGPQP [RAD51]	5.15 ± 0.25	5.26 ± 0.13	–	–
LGYLLLGAATNVFLFVLARVPAGI [MFSD9]	3.29 ± 0.69	2.94 ± 0.4	–	–
RCGVGVSVLDDLLYAVGGHDGSSY [KLHL20]	2.36 ± 0.38	2.13 ± 0.42	–	–
